In article PMC3742539, “ε Subunit of Bacillus subtilis F1-ATPase Relieves MgADP Inhibition” (PLoS ONE, 2013):

Target: T1, γ^S3C subunit of BF1 (Bacillus subtilis, UniProt P37810 1-287, S3C)
T1 construct: F1-ATPase γ subunit, Bacillus subtilis, with γSer3 to Cys; Stood in the assay as a subunit of the α3β3γ^S3C complex, never isolated alone; source: E. coli BL21(DE3), co-expressed with α and His6-β, purified as part of the α3β3γ^S3C complex
Assay: cross-linking; disulfide cross-linking without ATP: α3β3γ^S3C and ε^133C mixed 1:10, excess ε removed by ultrafiltration (100-kDa cutoff), 50 µM CuCl2, 1 h, 25 °C, 50 mM Tris-H2SO4 pH 7.5, 50 mM K2SO4; non-reducing SDS-PAGE
Settings: both partners purified

B1: mutant BF1 ε subunit (133C, a Cys introduced at the C-terminus) (natural protein, Bacillus subtilis, UniProt P37812 1-132, looked up)
chain: MKTVKVNIVTPDGPVYDADIEMVSVRAESGDLGILPGHIPTVAPLKIGAVRLKKDGQTEMVAVSGGFVEVRPDHVTILAQAAETAEGIDKERAEAARQRAQERLNSQSDDTDIRRAELALQRALNRLDVAGKC
  binding result: binds
